# From doi:10.1101/2020.10.04.325654 (bioRxiv, 2020)
# Experiments:
# GST-SdhA-CBM2 [1] = molecular target: T1, GST-SdhA-CBM2 (Legionella pneumophila, UniProt Q6RCQ3 1029-1260); test: ELISA
# GST-SdhA-CBM2 [2] = molecular target: T1, GST-SdhA-CBM2; test: pull-down
Binder,binding result (GST-SdhA-CBM2 [1]),binding result (GST-SdhA-CBM2 [2])
His-tagged ASH/RhoGAP domain of OCRL (536aa-901aa) (domain or fragment) not shown,binds,
6xHis-OCRL (enzyme) not shown,,binds
